B1: LINE1-full (parent)
chain: UACGUAGGUGGUUUUCCCCUGAUAGUGCUAAGGGGGCCUGGAAGUUUGGACUGGGCAGAGCUCAACACAGCGUGGCAAAGUGGCUGUGGCUAGACUGCCUCUCUGGAUUCCUCGUCACUCAGCAGGGCAUCUCUGAGAGAAAUGCC

Variants of: B1
Assay: self-cleavage, relative activity (ratio to wild type); higher = more cleavage; in vitro, sequencing; the parent is a self-cleaving ribozyme
For UACGAAGGUGGUUUUCCCCUGAUAGUGCUAAGGGGGCCUGGAAGUUUGGACUGGGCAGAGCUCAACACAGCGUGGCAAAGUGGCUGUGGCUAGACUGCCUCUCUGAAUUCCUCGUCACUCAGCAGGGCAUCUCUGAGAGAAAUGCC [U5A G106A], the self-cleavage was 1.14. In the case of UACGAAGGUGGUUUUCCCCUGAUAGUGCUAAGGGGGCCUGGAAGUUUGGACUGGGCAGAGCUCAACACAGCGUGGCAAAGCGGCUGUGGCUAGACUGCCUCUCUGGAUUCCUCGUCACUCAGCAGGGCAUCUCUGAGAGAAAUGCC [U5A U81C], the self-cleavage is reported as 0.99. For UACGAAGGUGGUUUUCCCCUGAUAGUGCUAAGGGGGCCUGGAAGUUUGGACUGGGCAGAGCUCAACACAGCGUGGCAAAGUGGCUGUGGCUAGACUGCCUCUCUGGAUUCCUCGUCACUCAGCAGGGCAUCUCUGAGAGUAAUGCC [U5A A140U], the self-cleavage was 1.09. UACGAAGGUGGCUUUCCCCUGAUAGUGCUAAGGGGGCCUGGAAGUUUGGACUGGGCAGAGCUCAACACAGCGUGGCAAAGUGGCUGUGGCUAGACUGCCUCUCUGGAUUCCUCGUCACUCAGCAGGGCAUCUCUGAGAGAAAUGCC [U5A U12C] gave a self-cleavage of 0.74. For UACGAAGGUGGGUUUCCCCUGAUAGUGCUAAGGGGGCCUGGAAGUUUGGACUGGGCAGAGCUCAACACAGCGUGGCAAAGUGGCUGUGGCUAGACUGCCUCUCUGGAUUCCUCGUCACUCAGCAGGGCAUCUCUGAGAGAAAUGCC [U5A U12G], the self-cleavage was 0.6. Variant UACGAAGGUGGUUUUCCCCUGAUAGUGCUAAGGGGGCCUGGAAGUUUGGACUGGGCAGAGCUCAACACGGCGUGGCAAAGUGGCUGUGGCUAGACUGCCUCUCUGGAUUCCUCGUCACUCAGCAGGGCAUCUCUGAGAGAAAUGCC [U5A A69G] has a self-cleavage of 0.45. In the case of UACGAAGGUGGUUUUCCCCUGAUAGUGCUAAGGGGGCCUGGAAGUUUGGACUGGGCAGAGCUCAACACUGCGUGGCAAAGUGGCUGUGGCUAGACUGCCUCUCUGGAUUCCUCGUCACUCAGCAGGGCAUCUCUGAGAGAAAUGCC [U5A A69U], the self-cleavage is reported as 0.09. In the case of UACGAAGGUGGUUUUCCCCUGAUAGUGCUAAGGGGGCCUGGAAGUUUGGACUGGGCAGAGCUCAACACAGCGUGGCAAAGUGGCUGUGGCUAGACUGCCUCUCUGGAUUCCUCGUCACUCAGCAGGGCAUCACUGAGAGAAAUGCC [U5A U132A], the self-cleavage is reported as 1.38. In the case of UACGCAGGUGGUUUUCCCCUGAUGGUGCUAAGGGGGCCUGGAAGUUUGGACUGGGCAGAGCUCAACACAGCGUGGCAAAGUGGCUGUGGCUAGACUGCCUCUCUGGAUUCCUCGUCACUCAGCAGGGCAUCUCUGAGAGAAAUGCC [U5C A24G], the self-cleavage is reported as 0.86. UACGCAGGUGGUUUUCCCCUGAUAGUGCUAAGGGGGCCUGGAAGUUUGGACUGGGCAGAGCUCAACACAGCGUGGCAAAGUGGCUGUGGCUAGACUGCCUCUCUGGAUUCCUCGUCACUCAGCAGGGCAUCUCUGAGAGAAAUGCC [U5C] gave a self-cleavage of 1.06. UACGAAGGUGGUUUUCCCCUGAUAGUGCUAAGGGGGCCUGGAAGUUUGGACUGGGCAGAGCUCAACACAGCGUGGCAAAGUGGCUGUGGCUAGACUGCCUCUCUGGAUUCCUCGUCACACAGCAGGGCAUCUCUGAGAGAAAUGCC [U5A U119A] gave a self-cleavage of 1.05. UACGAAGGUGGUUUUCCCCUGAUAGUGCUAAGGGGGCCUGGAAGUUUGGACUGGGCAGAGCUCAACACAGCGUGGCAAAGUGGCUGUGGCUAGACUGCCUCUCUGGAUUCCUCGUCACCCAGCAGGGCAUCUCUGAGAGAAAUGCC [U5A U119C] showed a self-cleavage of 0.9. For UACGAAGGUGGUUUUCCCCUGAUAGUGCAAAGGGGGCCUGGAAGUUUGGACUGGGCAGAGCUCAACACAGCGUGGCAAAGUGGCUGUGGCUAGACUGCCUCUCUGGAUUCCUCGUCACUCAGCAGGGCAUCUCUGAGAGAAAUGCC [U5A U29A], the self-cleavage was 1.16. For UACGAAGGUGGUUUUCCCCUGAUAGUGCUAAGGGGGCCUGGAAGUUUGGACUGGGCAGAGCUCAACACAGCGUGGCAAAGUGGCUGUGGCUAGACUGCCUCUCUGGAUUCCUCGUCACUCAGCAGGGUAUCUCUGAGAGAAAUGCC [U5A C128U], the self-cleavage was 1.06. UACGAAGGUGGUUUUCCCCUGAUAGUGCUAAGGGGGCCUGGAAGUUUGGACUGGGCAGAGCUCAACACAGCGGGGCAAAGUGGCUGUGGCUAGACUGCCUCUCUGGAUUCCUCGUCACUCAGCAGGGCAUCUCUGAGAGAAAUGCC [U5A U73G] showed a self-cleavage of 0.48. For UACGAAGGUGGUUUUCCCCUGAUAGUGCUAAGGGGGCCUGGAAGUUUGGACUGGGCAGAGCUCAACACAGCGAGGCAAAGUGGCUGUGGCUAGACUGCCUCUCUGGAUUCCUCGUCACUCAGCAGGGCAUCUCUGAGAGAAAUGCC [U5A U73A], the self-cleavage was 2.19. In the case of UACGAAGGUGGUUUUCCCCUGAUAGUGCUAAGGGGGCCUGGAAGUUUGGACUGGGCAGAGCUCAACACAGCGCGGCAAAGUGGCUGUGGCUAGACUGCCUCUCUGGAUUCCUCGUCACUCAGCAGGGCAUCUCUGAGAGAAAUGCC [U5A U73C], the self-cleavage is reported as 1.41. Work on UACGAAGGUGGUUUUCCCCUGAUAGUGCUAAGGGGGCCUGGAAGUUUGGACUGGGCAGAGCUCAACACAGCGUGGCAAAGUGGCUGUGGCUAGAUUGCCUCUCUGGAUUCCUCGUCACUCAGCAGGGCAUCUCUGAGAGAAAUGCC [U5A C95U] yielded a self-cleavage of 0.14. UACGAAGGUGGUUUUCCCCUGAUAGUGCUAAGGGGGCCUGGAAGUUUGGACUGGGCAGAGCUCAACACAGCGUGGCAAAGUGGCUGUGGCUAGACUGCCUCUCUGGAUUCCUCGUCACUCAGCAGGGCAUCUCUGUGAGAAAUGCC [U5A A136U] gave a self-cleavage of 1.11. In the case of UACGAAGGUGGUUUUCCCCUGAUAGUGCUAAGGGGGCCUGGAAGUUUGGACUGGGCAGAGCUCAACACAGCGUGGCAAAGUGGCUGUGGCUAGACUGCCUCUCUGGAUUCCUCGUCACUCAGCAGGGCAUCUCUGGGAGAAAUGCC [U5A A136G], the self-cleavage is reported as 1.14. For UACGAAGGUGGUUUUCCCCUGAUAGUGCUAAGGGGGCCUGGAAGUUUGGACUGGGCAGAGCUCAACACAGCGUGGCGAAGUGGCUGUGGCUAGACUGCCUCUCUGGAUUCCUCGUCACUCAGCAGGGCAUCUCUGAGAGAAAUGCC [U5A A77G], the self-cleavage was 2.07. Variant UACGCAGGUGGUUUUCCCCUGGUAGUGCUAAGGGGGCCUGGAAGUUUGGACUGGGCAGAGCUCAACACAGCGUGGCAAAGUGGCUGUGGCUAGACUGCCUCUCUGGAUUCCUCGUCACUCAGCAGGGCAUCUCUGAGAGAAAUGCC [U5C A22G] has a self-cleavage of 0.57. For UACGAAGGUGGUUUUCCCCUGAUAGUGCUAAGGGGGCCUGGAAGUUUGGACUAGGCAGAGCUCAACACAGCGUGGCAAAGUGGCUGUGGCUAGACUGCCUCUCUGGAUUCCUCGUCACUCAGCAGGGCAUCUCUGAGAGAAAUGCC [U5A G53A], the self-cleavage was 0.79. UACGAAGGUGGUUUUCCCCUGAUAGUGCUAAGGGGGCCUGGAAGUUUGGACUGGGCAGAGCACAACACAGCGUGGCAAAGUGGCUGUGGCUAGACUGCCUCUCUGGAUUCCUCGUCACUCAGCAGGGCAUCUCUGAGAGAAAUGCC [U5A U62A] gave a self-cleavage of 0. For UACGAAGGUGGUUUUCCCCUGAUAGUGCUAAGGGGGCCUGGAAGUUUGGACUGGGCAGAGCUCAACACAGCGUGGCAAAGUGGCUGUGGCUAGACUGCCUCCCUGGAUUCCUCGUCACUCAGCAGGGCAUCUCUGAGAGAAAUGCC [U5A U102C], the self-cleavage was 0.95. Variant UACGAAGGUGGUUUUCCCCUGAUAGUGCUAAGGGGGCCUGGAAGUUUGGACUGGGCAGAGCUCAACACAGCGUGGCAAAGUGGCUGUGGCUAGACUGCCUCUCUGGAUUCCUCGUCACUCAGCAGGGCAUCUCUGAGCGAAAUGCC [U5A A138C] has a self-cleavage of 0.98. Variant UACGAAGGUGGUUUUCCCCUGAUAGUGCUAAGGGGGCGUGGAAGUUUGGACUGGGCAGAGCUCAACACAGCGUGGCAAAGUGGCUGUGGCUAGACUGCCUCUCUGGAUUCCUCGUCACUCAGCAGGGCAUCUCUGAGAGAAAUGCC [U5A C38G] has a self-cleavage of 0.71. Work on UACGAAGGCGGUUUUCCCCUGAUAGUGCUAAGGGGGCCUGGAAGUUUGGACUGGGCAGAGCUCAACACAGCGUGGCAAAGUGGCUGUGGCUAGACUGCCUCUCUGGAUUCCUCGUCACUCAGCAGGGCAUCUCUGAGAGAAAUGCC [U5A U9C] yielded a self-cleavage of 0.81. Variant UACGAAGGUGGUUUUCCCCUGAUAGUGCUAAGGGGGCCUGGAAGUUUGGACUGGGCAGAGCUCAACACAGCGUGGCAAAGUGGCAGUGGCUAGACUGCCUCUCUGGAUUCCUCGUCACUCAGCAGGGCAUCUCUGAGAGAAAUGCC [U5A U85A] has a self-cleavage of 0.14. With UACGAAGGUGGUUUUCCCCUGAUAGUGCUAAGGGGGCCUGGAAGUUUGGACUGGGCAGAGCUCAACACAGCGUGGCAAAGUGGCUGUGGCUAGACUGCCUCUCUGGAUUCCUCGUCACUCAGCAGGGCAUCUCUGAGAGAAGUGCC [U5A A142G] the self-cleavage was 0.89. UACGAAGGUGGUUUUCCCCUGAUAGUGCUAAGGGGACCUGGAAGUUUGGACUGGGCAGAGCUCAACACAGCGUGGCAAAGUGGCUGUGGCUAGACUGCCUCUCUGGAUUCCUCGUCACUCAGCAGGGCAUCUCUGAGAGAAAUGCC [U5A G36A] showed a self-cleavage of 1.19. With UACGAAGGUGGUUUUCCCCUGAUAGUGCUAAGGGGGCCGGGAAGUUUGGACUGGGCAGAGCUCAACACAGCGUGGCAAAGUGGCUGUGGCUAGACUGCCUCUCUGGAUUCCUCGUCACUCAGCAGGGCAUCUCUGAGAGAAAUGCC [U5A U39G] the self-cleavage was 0.22. UACGAAGGUGGUUUUCCCCUGAUAGUGCUAAGGGGGCCUGGAAGUUUGAACUGGGCAGAGCUCAACACAGCGUGGCAAAGUGGCUGUGGCUAGACUGCCUCUCUGGAUUCCUCGUCACUCAGCAGGGCAUCUCUGAGAGAAAUGCC [U5A G49A] gave a self-cleavage of 0.5. For UACGAAGGUGGUUUUCCCCUGAUAGUGCUAAGGGGGCCUGGAAGCUUGGACUGGGCAGAGCUCAACACAGCGUGGCAAAGUGGCUGUGGCUAGACUGCCUCUCUGGAUUCCUCGUCACUCAGCAGGGCAUCUCUGAGAGAAAUGCC [U5A U45C], the self-cleavage was 1. UACGAAGGUGGUUUUCCCCUGAUAGUGCUAAGGGGGCCUGGAAGGUUGGACUGGGCAGAGCUCAACACAGCGUGGCAAAGUGGCUGUGGCUAGACUGCCUCUCUGGAUUCCUCGUCACUCAGCAGGGCAUCUCUGAGAGAAAUGCC [U5A U45G] showed a self-cleavage of 0.71. UACGAAGGUGGUUUUCCCCUGAUAGUGCUAAGGGGGCCUGGAAGUUUGGACUGGGCAGAGCUCAACACAGCGUGGCAAAGUGGCUGUGGCUAGGCUGCCUCUCUGGAUUCCUCGUCACUCAGCAGGGCAUCUCUGAGAGAAAUGCC [U5A A94G] gave a self-cleavage of 0.44. With UACGAAGGUGGUUUUCCCCUGAUAGUGCUAAGGGGGCCUGGAAGUUUGGACUGGGCAGAGCUCAACACAGCGUGGCAAAGUGGCUGUGGCUAGUCUGCCUCUCUGGAUUCCUCGUCACUCAGCAGGGCAUCUCUGAGAGAAAUGCC [U5A A94U] the self-cleavage was 0.32. UACGAAGGUGGUUUUCCCCUGAUAGUGCUAAGGGGGCCUGGAAGUUUGGACUGGGCAGAGCUCAACACAGCGUGGCAAAGUGGCUGUGGCUAGACUGCCUCUCCGGAUUCCUCGUCACUCAGCAGGGCAUCUCUGAGAGAAAUGCC [U5A U104C] gave a self-cleavage of 1.1. In the case of UACGAAGGUGGUUUUCCCCUGAUAGUGCUAAGGGGGCCUGGAAGUUUGGACUGGGCAGAGCUCAACACAGCGUGGCAAAGUGGCUGUGGCUAGACUGCCUCUCUGGAUUCCUCGUCACUCAGCAGGGCGUCUCUGAGAGAAAUGCC [U5A A129G], the self-cleavage is reported as 0.79.

— the RNAGym collection of RNA variant scans (doi:10.7554/elife.90254)
